Assay results from patent publication US20220396612A1 (UNIVERSIT DE TOURS, published 2022).

T1: virus-like particles (VLPs) of BK polyomavirus VP-1 protein, serotype II (BK virus (BKPyV), serotype II, UniProt P14996 1-362)
T1 construct: native VLPs; also called VLP II
T1 chain: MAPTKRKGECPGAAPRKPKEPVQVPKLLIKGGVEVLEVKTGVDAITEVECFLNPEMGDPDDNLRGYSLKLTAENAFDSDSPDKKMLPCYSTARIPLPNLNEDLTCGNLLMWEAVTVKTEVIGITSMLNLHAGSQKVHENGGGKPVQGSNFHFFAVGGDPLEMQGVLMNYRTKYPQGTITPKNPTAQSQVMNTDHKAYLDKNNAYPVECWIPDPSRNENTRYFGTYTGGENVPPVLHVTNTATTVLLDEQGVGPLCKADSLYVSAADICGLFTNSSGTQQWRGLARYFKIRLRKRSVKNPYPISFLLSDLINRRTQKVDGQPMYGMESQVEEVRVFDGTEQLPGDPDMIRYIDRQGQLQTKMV

T2: virus-like particles (VLPs) of BK polyomavirus VP-1 protein, serotype IV (BK virus (BKPyV), serotype IV, UniProt P14996 1-362)
T2 construct: native VLPs; also called VLP IV
T2 chain: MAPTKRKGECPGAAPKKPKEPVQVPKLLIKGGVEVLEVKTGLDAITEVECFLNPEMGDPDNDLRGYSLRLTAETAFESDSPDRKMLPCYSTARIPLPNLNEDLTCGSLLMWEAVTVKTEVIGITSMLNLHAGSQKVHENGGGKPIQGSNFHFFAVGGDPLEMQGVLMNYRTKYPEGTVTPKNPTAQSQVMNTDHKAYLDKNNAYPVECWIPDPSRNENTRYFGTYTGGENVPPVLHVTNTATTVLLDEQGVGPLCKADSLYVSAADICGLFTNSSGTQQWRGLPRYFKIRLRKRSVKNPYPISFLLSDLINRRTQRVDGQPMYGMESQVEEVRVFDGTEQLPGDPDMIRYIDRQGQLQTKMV

T3: virus-like particles (VLPs) of BK polyomavirus VP-1 protein, serotype Ia (BK virus (BKPyV), serotype Ia, UniProt P03088 1-361)
T3 construct: self-assembled native VLPs coated on ELISA plates; also called VLP Ia; BKV VP-1, serotype Ia
T3 chain: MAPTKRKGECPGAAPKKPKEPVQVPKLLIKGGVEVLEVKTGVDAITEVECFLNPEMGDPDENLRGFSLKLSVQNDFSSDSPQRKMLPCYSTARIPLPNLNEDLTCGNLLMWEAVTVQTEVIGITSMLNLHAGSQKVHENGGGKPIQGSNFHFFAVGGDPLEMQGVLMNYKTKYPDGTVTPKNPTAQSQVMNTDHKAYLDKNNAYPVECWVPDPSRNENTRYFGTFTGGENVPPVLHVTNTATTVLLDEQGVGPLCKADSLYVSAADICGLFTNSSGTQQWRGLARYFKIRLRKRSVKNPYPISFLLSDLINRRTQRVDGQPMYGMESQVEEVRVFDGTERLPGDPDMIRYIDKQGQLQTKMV

T4: virus-like particles (VLPs) of BK polyomavirus VP-1 protein, serotype Ib2 (BK virus (BKPyV), serotype Ib2, PA …, UniProt P03088 1-362)
T4 construct: native VLPs; also the immunogen; also called VLP Ib2; BK Ib2
T4 chain: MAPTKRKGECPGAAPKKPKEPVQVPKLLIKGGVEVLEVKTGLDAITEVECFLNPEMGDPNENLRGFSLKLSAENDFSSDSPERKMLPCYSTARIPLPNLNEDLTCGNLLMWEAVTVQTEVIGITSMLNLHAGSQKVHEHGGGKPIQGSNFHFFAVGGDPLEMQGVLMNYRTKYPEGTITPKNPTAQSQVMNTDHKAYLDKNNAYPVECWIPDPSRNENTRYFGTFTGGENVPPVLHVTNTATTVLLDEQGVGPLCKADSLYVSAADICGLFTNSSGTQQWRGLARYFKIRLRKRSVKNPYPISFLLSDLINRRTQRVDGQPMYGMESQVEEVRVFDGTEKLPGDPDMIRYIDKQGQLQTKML

B1: monoclonal antibody ‘18A2’ derived from hybridoma 18A2 (antibody, V domains shown)
VH: DVQLQESGPGLVKPSQSLSLTCSVTGYSITSGYYWNWIRQFPGNKLEWMGYISYDGSNNYNPSLKNRISITRDTSKNQFFLKLNSVTTEDTATYYCARWEGTTDYWGQGTTLTVSS
VL: not shown
notes: Mouse hybridoma antibody
B2: monoclonal antibody ‘F6’ secreted by clone BK6A2F6 (antibody)
heavy: EVQLQQSGPELVKPGASVKISCKASGYSFTGYFMNWVKQSHGKSLEWIGRINPYNGDTFYNQKFKGKATLTVDKSSSTAHMELLSLTSEDSAVYYCGSYYYGDYFDYWGQGTTLTVSSAKTTPPSVYPLAPGSAAQTNSMVTLGCLVKGYFPEPVTVTWNSGSLSSGVHTFPAVLQSDLYTLSSSVTVPSSTWPSETVTCNVAHPASSTKVDKKIVPRDCGCKPCICTVPEVSSVFIFPPKPKDVLTITLTPKVTCVVVDISKDDPEVQFSWFVDDVEVHTAQTQPREEQFNSTFRSVSELPIMHQDWLNGKEFKCRVNSAAFPAPIEKTISKTKGRPKAPQVYTIPPPKEQMAKDKVSLTCMITDFFPEDITVEWQWNGQPAENYKNTQPIMDTDGSYFVYSKLNVQKSNWEAGNTFTCSVLHEGLHNHHTEKSLSHSPGK
light: […]
B3: monoclonal antibody ‘H6’ secreted by clone BK6A2H6 (antibody, V domains shown)
VH: EVQLQQSGPELVKPGASVKISCKASGYSFTGYFMNWVKQSHGKSLEWIGRINPYNGDTFYNQKFKGKATLTVDKSSSTAHMELLSLTSEDSAVYYCGSYYYGDYFDYWGQGTTLTVSS
VL: SIVMTQIPKFLLVSEGDRVTITCKASQSVSNDVAWYQQKSGQSPKLLIYYASNRYTGVPDRFTGSGYGTDFTFTISTVQAEDLAVYFCQQDYSSPLTFGAGTKLELKR

How the values were obtained:
[1] = target: T1, virus-like particles (VLPs) of BK …; assay: ELISA on not denatured VLP (threshold OD>0.5)
Experimental: (§1) The wells were then blocked for 1 hour at +37° C. with a PBS/SVF mixture. After dilution in a dilution buffer containing SVF, PBS and Tween® 20, the individual culture supernatants or purified antibodies were added for 1 hour at +37° C. The wells were washed four times in a row with Wash Buffer and a secondary anti-mouse peroxidase antibody was added to the 1/2000 dilution for 1 hour at +37° C. The wells were washed again four times in a row and the substrate was added for 30 minutes at room temperature. A stop solution was added and then each well was read by measuring the absorbance at 492 nm with a spectrophotometer. The value obtained for the average of the control wells (PBS in the first step) was subtracted from the optical density values obtained for each well (detection threshold: OD>0.5).

[2] = target: T2, virus-like particles (VLPs) of BK …; assay: ELISA on not denatured VLP (threshold OD>0.5)
Experimental: as §1

[3] = target: T3, virus-like particles (VLPs) of BK …; assay: ELISA on not denatured VLP (threshold OD>0.5)
Experimental: as §1

[4] = target: T4, virus-like particles (VLPs) of BK …; assay: ELISA on not denatured VLP (threshold OD>0.5)
Experimental: as §1

[5] = target: T1, virus-like particles (VLPs) of BK …; assay: ELISA on coated VLP; supernatant 1/1 280
Experimental: (§2) To do this, the VLPs produced were deposited at a concentration of 1 μg/mL in PBS and incubated overnight at +4° C. The wells were then blocked for 1 h at +37° C. with a PBS/FCS (phosphate-buffered saline/fetal calf serum) mixture. After dilution in a dilution buffer containing FCS, PBS and Tween® 20, the various hybridoma culture supernatants were added for 1 h at +37° C. The wells were washed four times in a row with Wash Buffer and a secondary anti-mouse antibody coupled to peroxidase was added to the 1:2000 dilution for 1 h at +37° C. The wells were washed four more times and the substrate (OPD (ortho phenylene diamine)+H₂O₂) was added for 30 min at room temperature. A stop solution (H₂SO₄ 4N) was then added and each well was read by measuring the absorbance at 492 nm with a spectrophotometer. The value obtained for the average of the control wells (PBS in the first step) is subtracted from the optical density values obtained for each well.

[6] = target: T4, virus-like particles (VLPs) of BK …; assay: ELISA on coated VLP; supernatant 1/1 280
Experimental: as §2

[7] = target: T1, virus-like particles (VLPs) of BK …; assay: ELISA on coated VLP; supernatant 1/320
Experimental: as §2

[8] = target: T2, virus-like particles (VLPs) of BK …; assay: ELISA on coated VLP; supernatant 1/320
Experimental: as §2

[9] = target: T3, virus-like particles (VLPs) of BK …; assay: ELISA on coated VLP; supernatant 1/320
Experimental: as §2

[10] = target: T4, virus-like particles (VLPs) of BK …; assay: ELISA on coated VLP; supernatant 1/320
Experimental: as §2

[11] = target: T3, virus-like particles (VLPs) of BK …; assay: ELISA on coated VLP; supernatant 1/5 120
Experimental: as §2

[12] = target: T4, virus-like particles (VLPs) of BK …; assay: ELISA on coated VLP; supernatant 1/5 120
Experimental: as §2

Binder	OD 492 nm [1]	OD 492 nm [2]	OD 492 nm [3]	OD 492 nm [4]	OD 492 nm [5]	OD 492 nm [6]	OD 492 nm [7]	OD 492 nm [8]	OD 492 nm [9]	OD 492 nm [10]	OD 492 nm [11]	OD 492 nm [12]
B1	1.71 OD	2.99 OD	3.84 OD	0.565 OD	–	–	–	–	–	–	–	–
B2	3 OD	0.788 OD	3.94 OD	2.7 OD	0.09 OD	0.11 OD	0.16 OD	3.16 OD	3.16 OD	0.29 OD	0.57 OD	0.08 OD
B3	–	–	–	–	0.08 OD	0.14 OD	0.13 OD	2.66 OD	3.03 OD	0.29 OD	0.86 OD	0.09 OD
